The results in this text go back to US20110245153A1.

The experiment deals with Staphylococcal enterotoxin B (Staphylococcus aureus) (UniProt P01552).
Chain of UniProt P01552 (P01552 28-266 limits assumed): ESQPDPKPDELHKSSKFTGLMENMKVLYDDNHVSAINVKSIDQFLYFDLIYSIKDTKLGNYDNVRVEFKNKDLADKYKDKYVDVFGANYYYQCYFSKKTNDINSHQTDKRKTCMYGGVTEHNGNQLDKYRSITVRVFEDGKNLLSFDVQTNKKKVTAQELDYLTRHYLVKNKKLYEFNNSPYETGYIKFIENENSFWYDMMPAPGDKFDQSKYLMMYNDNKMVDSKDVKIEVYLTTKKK

Consider Vβ8 CDR2 mutant EGIGYITK (TCR), for which the Kd (usually the constant that tells how readily two partners part at equilibrium) is 5 nM.
